# Reference: patent publication US20220281975A1 (Eli Lilly, published 2022)
# B1: TREM2 Antibody 1 (antibody, human IgG4 S228P, kappa, F234A L235A, V domains shown)
# VH: EVQLVQSGAEVKKPGESLKISCKGSGFSFNTYWIGWVRQMPGKGLEWMGIIYPGDQDIRYSPSFQGQVTISADKSISTAYLQWSSLKASDTAMYYCARYGRYIYGYGGYHGMDVWGQGTTVTVSS
# VL: DIQMTQSPSSLSASVGDRVTITCRASQAIRDDLGWYQQKPGKAPKLLIYAASSLQSGVPSRFSGSGSGTDFTLTISSLQPEDFATYYCLQNYNYPHTFGQGTKLEIKR
# notes: Human antibody with a kappa light chain
# Columns and labels:
# [1] = biological target: T1, Human ECD TREM2-His (human, UniProt Q9NZC2 19-174); assay: SPR (Biacore), 25 C; 25 C; human TREM2
# T1 construct: also called Human TREM2; human TREM2 extracellular domain fused to a C-terminal His tag
# T1 sequence: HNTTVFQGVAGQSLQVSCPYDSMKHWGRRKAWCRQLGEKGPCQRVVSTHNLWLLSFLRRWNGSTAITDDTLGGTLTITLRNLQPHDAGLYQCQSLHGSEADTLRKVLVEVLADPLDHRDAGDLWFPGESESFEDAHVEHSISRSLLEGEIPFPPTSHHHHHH
# [2] = biological target: T2, Rabbit ECD TREM2-HIS (rabbit); assay: SPR (Biacore), 37 C, antibody captured on protein A, TREM2-His ECD as analyte
# T2 construct: also called rabbit TREM2
# T2 chain: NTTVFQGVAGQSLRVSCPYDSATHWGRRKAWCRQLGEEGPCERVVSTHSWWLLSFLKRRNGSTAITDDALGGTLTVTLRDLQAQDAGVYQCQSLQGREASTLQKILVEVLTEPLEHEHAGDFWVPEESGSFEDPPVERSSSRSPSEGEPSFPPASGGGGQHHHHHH
# Protocol: (§1) The binding kinetics and affinity of TREM2 antibodies to human (SEQ ID NO: 11), mouse (SEQ ID NO: 12), rat (SEQ ID NO: 14), rabbit (SEQ ID NO: 13), or cynomolgus monkey (SEQ ID NO: 15) TREM2 extracellular domains (ECDs) fused to a C-terminal His tag are determined using surface plasmon resonance biosensor such as a BIAcore® T100, BIAcore® T200, or BIAcore® 8K (GE Healthcare, Piscataway, N .).
# (§2) Samples are dissolved in 1xHBS-EP+running buffer (Teknova), and a protein A coupled CM5 Series S sensor chip (GE Healthcare) is utilized to capture antibody. Binding is evaluated using multiple analytical cycles. Each cycle is performed at 37° C. at a flow rate of 50 μl/min for antibody capture and 30 μl/min for ligand association and dissociation. […] Association (i.e., kₒₙ) and dissociation rates (i.e., koff) for each cycle are evaluated using standard double referencing and fit to “1:1 (Langmuir) binding” model in the Biacore 8K evaluation in parallel kinetics batch mode. The affinity (KD) is calculated from the binding kinetics according to the relationship KD=Koff/Kₒₙ. […]
# [3] = biological target: T3, Rat ECD TREM2-His (rat); assay: as above
# T3 construct: also called Rat TREM2
# T3 chain: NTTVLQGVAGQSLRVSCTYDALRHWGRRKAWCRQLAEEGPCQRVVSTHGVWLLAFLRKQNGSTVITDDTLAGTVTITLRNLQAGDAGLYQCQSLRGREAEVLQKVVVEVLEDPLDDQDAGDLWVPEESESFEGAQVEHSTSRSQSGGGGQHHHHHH
# Protocol: as §1, §2
# [4] = biological target: T4, Human TREM2 R47H (human, UniProt Q9NZC2 19-174, limits assumed); assay: SPR (Biacore), 25 C; 25 C; human TREM2 R47H
# T4 construct: also called human R47H TREM mutant; R47H TREM
# T4 sequence (looked up): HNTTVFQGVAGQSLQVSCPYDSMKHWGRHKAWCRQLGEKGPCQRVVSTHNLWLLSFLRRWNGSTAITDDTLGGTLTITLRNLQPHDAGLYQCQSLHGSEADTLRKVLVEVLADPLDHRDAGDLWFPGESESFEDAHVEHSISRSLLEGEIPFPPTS
# [5] = biological target: T5, Mouse ECD TREM2-His (mouse, UniProt Q99NH8 19-171); assay: SPR (Biacore), 25 C; 25 C; mouse TREM2
# T5 construct: also called Mouse TREM2
# T5 sequence: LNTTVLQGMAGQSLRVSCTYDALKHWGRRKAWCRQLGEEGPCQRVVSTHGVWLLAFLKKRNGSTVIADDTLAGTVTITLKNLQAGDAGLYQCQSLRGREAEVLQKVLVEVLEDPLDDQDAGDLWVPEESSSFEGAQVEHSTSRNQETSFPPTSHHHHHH
# [6] = biological target: T4, Human TREM2 R47H; assay: SPR (Biacore), 37 C, antibody captured on protein A, TREM2 R47H analyte, 1:1 model
# [7] = biological target: T6, Cyno ECD TREM2-His (cynomolgus monkey); assay: SPR (Biacore), 25 C; 25 C; cynomolgus TREM2
# T6 construct: also called Cyno TREM2; cynomolgus monkey TREM2
# T6 chain: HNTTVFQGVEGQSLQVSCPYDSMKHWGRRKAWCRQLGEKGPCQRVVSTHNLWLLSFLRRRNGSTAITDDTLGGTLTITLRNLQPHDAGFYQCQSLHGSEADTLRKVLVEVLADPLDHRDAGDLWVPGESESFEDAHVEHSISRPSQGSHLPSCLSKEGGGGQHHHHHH
# [8] = biological target: T7, human TREM2 expressed on BW5147.G.1.4 cells (human, UniProt Q9NZC2 19-230); assay: flow cytometry (MFI) on BW5147.G.1.4 cells expressing human TREM2 and DAP12, anti-human IgG Alexa Fluor 647 detection
# T7 construct: whole, on cells; Co-expressed with the adapter DAP12; also called TREM2 expressing BW5147.G.1.4 cells
# T7 sequence (looked up): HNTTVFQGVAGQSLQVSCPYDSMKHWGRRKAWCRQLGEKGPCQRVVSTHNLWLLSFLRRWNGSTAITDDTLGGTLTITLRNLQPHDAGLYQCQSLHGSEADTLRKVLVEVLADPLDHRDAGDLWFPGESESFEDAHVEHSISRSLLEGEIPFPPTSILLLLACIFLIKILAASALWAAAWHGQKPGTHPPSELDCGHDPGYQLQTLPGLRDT
# Protocol: To investigate whether Antibody 1 binds to TREM2-expressing cells, a binding experiment is performed. BW5147.G.1.4 cell line is transduced to express human TREM2 and its adapter […] adapter protein 12 (DAP12). To assess binding, 500,000 cells are incubated in the presence of Antibody 1 with a 3-fold 12-point titration starting at 30 μg/ml for 30 minutes at 37° C. Antibody binding is detected using goat anti-human IgG Alexa Fluor 647 (Jackson Labs). Mean fluorescence intensity (MFI) is measured using an Accuri C6 Plus flow cytometer (BD Biosciences).
# [9] = biological target: T7, human TREM2 expressed on BW5147.G.1.4 …; assay: cell-based or functional assay
# [10] = biological target: T1, Human ECD TREM2-His; assay: SPR (Biacore), 37 C, antibody captured on protein A, TREM2-His ECD analyte, 1:1 model
# Protocol: as §1
# (§3) Samples are dissolved in 1xHBS-EP+running buffer (Teknova), and a protein A coupled CM5 Series S sensor chip (GE Healthcare) is utilized to capture antibody. Binding is evaluated using multiple analytical cycles. Each cycle is performed at 37° C. at a flow rate of 50 μl/min for antibody capture and 30 μl/min for ligand association and dissociation. Each cycle consists of the following: injection of 7 μl of 1 μg/ml antibody with the aim at a capture of 150-250 response units, injection of human, cynomolgus monkey, rabbit, rat, or mouse TREM2-His ECDs (starting at 20nM and using two-fold serial dilutions for each cycle) followed by 200 seconds for association, followed by 800 second dissociation phase, and regeneration using 10 mM glycine hydrochloride, pH 1.5 over a 30 second contact time. Association (i.e., kₒₙ) and dissociation rates (i.e., koff) for each cycle are evaluated using standard double referencing and fit to “1:1 (Langmuir) binding” model in the Biacore 8K evaluation in parallel kinetics batch mode. The affinity (KD) is calculated from the binding kinetics according to the relationship KD=Koff/Kₒₙ. Due to biphasic binding data for Reference Antibody A, a heterogenous ligand 2:1 binding modeling found in the Biacore 8K evaluation was used to calculate the KD. […] N=3 for Antibody 1 and Reference Antibody A, and n=1 for Reference Antibody B.
# [11] = biological target: T5, Mouse ECD TREM2-His; assay: as above
# Protocol: as §1, §3
# [12] = biological target: T6, Cyno ECD TREM2-His; assay: as above
# Protocol: as §1, §3
binder,measurement,setting,value
B1,Kd,[1],0.15 nM
same,binding result,[2],no binding
same,binding result,[3],no binding (tested: 200 nM TREM2)
same,Kd,[4],0.29 nM
same,Kd,[5],3.9 nM
same,Kd,[6],0.075 nM
same,koff,[6],0.00037 s⁻¹
same,kon,[6],5e+06 M⁻¹ s⁻¹
same,Kd,[7],0.043 nM
same,EC50,[8],0.08 µg/mL
same,IC50 of inhibition of PS-mediated NFAT activation (luciferase reporter cells),[9],0.4 µg/mL
same,Kd,[10],0.17 nM
same,koff,[10],0.00058 s⁻¹
same,kon,[10],3.4e+06 M⁻¹ s⁻¹
same,Kd,[11],1.6 nM
same,koff,[11],0.044 s⁻¹
same,kon,[11],2.5e+07 M⁻¹ s⁻¹
same,Kd,[12],0.075 nM
same,koff,[12],0.00037 s⁻¹
same,kon,[12],5e+06 M⁻¹ s⁻¹
